Experiments:
[1] = biological target: Hsp90 in rabbit reticulocyte lysate (Hsp90 heterocomplex) (rabbit) (UniProt P30947); experiment: reticulocyte lysate with 35S-labeled GR, with or without CHIP, immunoprecipitation of Hsp90 with 3G3; displaced molecule: GR
[2] = biological target: Hsp90 in rabbit reticulocyte lysate (Hsp90 heterocomplex) (rabbit) (UniProt P30947); experiment: rabbit reticulocyte lysate with recombinant CHIP, immunoprecipitation of Hsp90 with 3G3, Western blot; displaced molecule: Hop

Hsp90 in rabbit reticulocyte lysate (Hsp90 heterocomplex) (rabbit), sequence (P30947 2-726, one chain of several): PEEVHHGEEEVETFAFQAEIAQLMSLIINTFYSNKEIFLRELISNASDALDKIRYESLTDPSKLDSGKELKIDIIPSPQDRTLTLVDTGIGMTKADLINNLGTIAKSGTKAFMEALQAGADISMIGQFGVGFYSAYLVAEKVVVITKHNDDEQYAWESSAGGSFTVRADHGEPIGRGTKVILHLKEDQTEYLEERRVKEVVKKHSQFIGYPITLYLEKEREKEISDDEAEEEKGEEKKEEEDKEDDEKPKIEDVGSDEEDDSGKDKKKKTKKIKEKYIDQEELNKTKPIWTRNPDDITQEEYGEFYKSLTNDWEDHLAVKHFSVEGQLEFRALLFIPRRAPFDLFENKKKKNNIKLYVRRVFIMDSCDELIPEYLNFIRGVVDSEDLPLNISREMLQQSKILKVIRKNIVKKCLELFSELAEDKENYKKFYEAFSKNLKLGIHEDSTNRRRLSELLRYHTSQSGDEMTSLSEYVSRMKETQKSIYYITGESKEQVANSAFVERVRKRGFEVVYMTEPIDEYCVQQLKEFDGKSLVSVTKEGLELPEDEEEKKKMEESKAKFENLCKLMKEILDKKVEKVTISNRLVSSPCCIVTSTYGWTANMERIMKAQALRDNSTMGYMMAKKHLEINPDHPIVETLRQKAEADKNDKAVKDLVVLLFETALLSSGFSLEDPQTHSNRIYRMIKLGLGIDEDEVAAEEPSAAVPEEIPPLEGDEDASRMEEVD

Substance: Recombinant hCHIP (His-tagged fusion from plasmid pET-hCHIP, expressed in E. coli BL21) (from UniProt Q9UNE7 1-303)
- decrease of GR co-precipitated with Hsp90 [1]: 50%
- decrease of the amount of Hop associated with the Hsp90 complex [2]: 50%

Reference: patent US7094873
